In publication PMC10330345 (Journal of immunology (Baltimore, Md. : 1950), 2023):
Substitutions are numbered along the chain they refer to. Names may count otherwise.

B1: BTN2A1 (309–527) wild type (domain or fragment, human, UniProt Q7KYR7 309-527, looked up)
chain: QVKEKLQEELRWRRTFLHAVDVVLDPDTAHPDLFLSEDRRSVRRCPFRHLGESVPDNPERFDSQPCVLGRESFASGKHYWEVEVENVIEWTVGVCRDSVERKGEVLLIPQNGFWTLEMHKGQYRAVSSPDRILPLKESLCRVGVFLDYEAGDVSFYNMRDRSHIYTCPRSAFSVPVRPFFRLGCEDSPIFICPALTGANGVTVPEEGLTLHRVGTHQSL
B2: BTN2A1 (271–527) wild type (domain or fragment, human, UniProt Q7KYR7 271-527, looked up)
chain: KLQKEKKILSGEKEFERETREIALKELEKERVQKEEELQVKEKLQEELRWRRTFLHAVDVVLDPDTAHPDLFLSEDRRSVRRCPFRHLGESVPDNPERFDSQPCVLGRESFASGKHYWEVEVENVIEWTVGVCRDSVERKGEVLLIPQNGFWTLEMHKGQYRAVSSPDRILPLKESLCRVGVFLDYEAGDVSFYNMRDRSHIYTCPRSAFSVPVRPFFRLGCEDSPIFICPALTGANGVTVPEEGLTLHRVGTHQSL
B3: BTN2A1 (271–527) W320A (domain or fragment, human, UniProt Q7KYR7 271-527, looked up)
chain: B2 chain with W50A
B4: BTN2A1 (271–527) L318GW320A (domain or fragment, human, UniProt Q7KYR7 271-527, looked up)
chain: B2 chain with L48G, W50A
B5: BTN2A1 (271–527) L318G (domain or fragment, human, UniProt Q7KYR7 271-527, looked up)
chain: B2 chain with L48G

Biological target: the molecule itself
Experiment: SEC

Row | Protein | stoichiometry N
1 | B1 | 2
2 | B2 | 2
3 | B3 | 2
4 | B4 | 2
5 | B5 | 2
